Data: patent US20230001006A1 (GAMAMABS PHARMA, published 2023)

Assays:
[1] = molecular target: T1, AMHRII on the COV434 AMHRII transfected cell line (~80,000 receptors) (human, UniProt Q16671 18-573); test: cell-based or functional assay
T1 sequence: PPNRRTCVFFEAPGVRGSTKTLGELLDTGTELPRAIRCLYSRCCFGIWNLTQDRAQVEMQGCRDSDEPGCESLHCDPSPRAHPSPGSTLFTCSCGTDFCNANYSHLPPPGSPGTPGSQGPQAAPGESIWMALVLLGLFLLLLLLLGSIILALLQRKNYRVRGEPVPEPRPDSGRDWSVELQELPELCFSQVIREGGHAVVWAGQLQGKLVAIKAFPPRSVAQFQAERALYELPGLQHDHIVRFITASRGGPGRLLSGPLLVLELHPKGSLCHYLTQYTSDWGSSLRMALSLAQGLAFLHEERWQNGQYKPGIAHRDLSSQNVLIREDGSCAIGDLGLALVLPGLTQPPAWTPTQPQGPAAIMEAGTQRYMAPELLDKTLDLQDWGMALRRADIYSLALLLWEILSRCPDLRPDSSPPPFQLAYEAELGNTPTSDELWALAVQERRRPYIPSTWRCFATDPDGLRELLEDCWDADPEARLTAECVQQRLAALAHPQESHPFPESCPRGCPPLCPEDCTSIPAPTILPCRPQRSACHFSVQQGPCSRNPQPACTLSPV

FcRn = molecular target: T2, FcRn; test: SPR ('Binding SPR (KD)' row FcRn); set-up not given
T2 construct: also called neonatal Fc receptor

[2] = molecular target: T3, anti-Müllerian hormone type II receptor (AMHRII), immobilised on the SPR chip (human, UniProt Q16671 18-149, limits assumed); test: SPR (Bia3000, 25°C), AMHRII covalently immobilised on a CM5 chip, ADC injected, Langmuir 1:1 fit (Example 3)
T3 construct: also called AMHR2
Protocol: All kinetic measurements are performed on a Bia3000 apparatus at 25° C. in PBS pH 7.4 containing 0.005% of P20 surfactant at 50 μl/min on control and AMHRII Flowcells. The antibody is injected during 180 s at concentrations given in the appendix. After a dissociation step of 400 s in running buffer, sensor surfaces are regenerated using one pulse of 15 μl of Gly-HCL pH1.7. All the sensorgrams are corrected by subtracting the low signal from the control reference surface and blank buffer. Kinetic parameters are evaluated from the sensorgrams using a Langmuir 1:1 model on the BiaEvaluation software 4.2.
For kinetic studies all the mAb and ADC are injected at various concentrations (0.7 nM-100 nM). The sensorgrams are evaluated by L1:1 fitting model (BiaEvaluation 4.2 software) starting of minimum 3 (n=3) separated experiments or fits to obtain average values for ka, kd and KD with standard deviation (SD). Several experiments are performed on the same AMHRII-coated surface after verification of the responses stability to 10 nM injection of 3C23K before and after the experiment series with each mAb/ADC. All results are obtained from two AMHRII-coated Flowcells.

- Kd (FcRn): 22 nM
- Kd [2]: 1.7 nM
B1: GM104 (antibody, human IgG1, kappa)
heavy: QVRLVQSGAEVKKPGASVKVSCKASGYTFTSYHIHWVRQAPGQRLEWMGWIYPGDDSTKYSQKFQGRVTITRDTSASTAYMELSSLRSEDTAVYYCTRGDRFAYWGQGTLVTVSSASTKGPSVFPLAPSSKSTSGGTAALGCLVKDYFPEPVTVSWNSGALTSGVHTFPAVLQSSGLYSLSSVVTVPSSSLGTQTYICNVNHKPSNTKVDKRVEPKSCDKTHTCPPCPAPELLGGPSCVFLFPPKPKDTLMISRTPEVTCVVVDVSHEDPEVKFNWYVDGVEVHNAKTKPREEQYNSTYRVVSVLTVLHQDWLNGKEYKCKVSNKALPAPIEKTISKAKGQPREPQVYTLPPSREEMTKNQVSLTCLVKGFYPSDIAVEWESNGQPENNYKTTPPVLDSDGSFFLYSKLTVDKSRWQQGNVFSCSVMHEALHNHYTQKSLSLSPGK
light: DIQMTQSPSTLSASVGDRVTITCRASSSVRYIAWYQQKPGKAPKLLTYPTSSLESGVPSRFSGSGSGTEFTLTISSLQPDDFATYYCLQWSSYPWTFGGGTKVEIKRTVAAPSVFIFPPSDEQLKSGTASVVCLLNNFYPREAKVQWKVDNALQSGNSQESVTEQDSKDSTYSLSSTLTLSKADYEKHKVYACEVTHQGLSSPVTKSFNRGEC
notes: also called GM104 ADC; ADC according to the invention
- IC50, proliferation/viability of COV434 AMHRII transfected cells after 72 h (CellTiter Blue) [1]: 0.22 nM
